One may read the kcat as the maximal rate divided by the concentration of active sites. What is called kcat/KM is the second-order rate constant that governs catalysis at low substrate concentration. What is called KM is the concentration of substrate that gives half-maximal velocity.

The test system of data set [1] is Antithrombin III (AT-III), plasma purified human, in complex with full-length unfractionated heparin (UFH).
Data set [2] deals with Factor X (FX) (UniProt P00742).
Data set [3] deals with Factor X (UniProt P00742).
Chain of Factor X (P00742 41-488): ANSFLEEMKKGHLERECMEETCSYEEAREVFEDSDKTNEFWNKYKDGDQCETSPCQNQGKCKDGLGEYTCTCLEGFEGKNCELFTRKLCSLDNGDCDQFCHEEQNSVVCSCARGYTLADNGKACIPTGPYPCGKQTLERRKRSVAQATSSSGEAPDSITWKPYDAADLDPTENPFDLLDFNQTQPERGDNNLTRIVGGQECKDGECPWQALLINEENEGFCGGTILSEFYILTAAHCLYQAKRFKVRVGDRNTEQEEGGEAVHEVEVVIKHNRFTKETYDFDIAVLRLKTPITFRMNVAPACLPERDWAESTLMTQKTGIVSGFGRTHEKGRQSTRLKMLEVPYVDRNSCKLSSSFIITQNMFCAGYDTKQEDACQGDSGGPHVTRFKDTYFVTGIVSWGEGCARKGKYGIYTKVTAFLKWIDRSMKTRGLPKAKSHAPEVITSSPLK
The target of data set [4] is Factor X (FX), active site titrated and DFP/EGR-cmk treated zymogen (UniProt P00742).
Chain of Factor X (FX), active site titrated and DFP/EGR-cmk treated zymogen (P00742 41-488): as above
Data set [5] deals with plasma purified human AT-III (antithrombin III), in complex with low molecular weight heparin. Kind of data set: same assay; ratio of K0.5 to that of Catalyst Biosciences WT FIXa.

Chain of Factor X (FX) (P00742 41-488): as above

On to FIXa N157Q, for which the K0.5 in data set [1] was 16 nM.
Still for that read-out and setting: the result for FIXa N157D reads 17 nM.
With FIXa-A103N/N105S/Y155F, in data set [2], the “% of WT (kcat/KM)” value amounted to 85% and the kcat/KM (M^-1s^-1) stood at 3.9e+07 M⁻¹ s⁻¹. Besides, the kcat in data set [3] amounted to 3.2 s⁻¹.
For the substance FIXa-D64A, in data set [2], the kcat/KM (M^-1s^-1) was found to be 2.5e+06 M⁻¹ s⁻¹. Moreover, in data set [3], the kcat worked out at 0.3 s⁻¹.
For “FIXa A103N/N105S (A[103]N/N[105]S by chymotrypsin numbering)”, the kcat in data set [4] came to 3.1 s⁻¹.
FIXa-S61A: in data set [2], the “% of WT (kcat/KM)” value was 105% and the kcat/KM (M^-1s^-1) was 4.8e+07 M⁻¹ s⁻¹.
On to FIXa-D104N/K106S, for which, in data set [2], the “% of WT (kcat/KM)” value is recorded as 83% and the kcat/KM (M^-1s^-1) turned out to be 3.8e+07 M⁻¹ s⁻¹. Further, the K0.5-mut/K0.5-wt in data set [5] turned out to be 0.9.
FIXa Y155Q showed a K0.5 in data set [1] of 23 nM.
The same measure, in the same setting: in the case of FIXa T172A it was 16 nM.
In data set [1], FIXa A103N/N105S registered a K0.5 of 20 nM and a K0.5-mut/K0.5-wt of 1.
In turn, Plasma Purified FIXa yielded a K0.5 in data set [1] of 30 nM.
Same read-out and setting: the result for FIXa T159A reads 33 nM.
With FIXa-S53A, in data set [2], the “% of WT (kcat/KM)” value worked out at 76% and the kcat/KM (M^-1s^-1) amounted to 3.5e+07 M⁻¹ s⁻¹. In addition, the kcat in data set [3] was determined as 3.7 s⁻¹.
For “FIXa D104N/K106S (D[104]N/K[106]S by chymotrypsin numbering)”, in data set [4], the kcat was determined as 3.1 s⁻¹.
As to FIXa S158E, the K0.5 in data set [1] was 14 nM.
As to “FIXa D64A (D[64]A by chymotrypsin numbering)”, in data set [4], the kcat stood at 0.3 s⁻¹.
FIXa S158D had a K0.5 in data set [1] of 15 nM.
Consider FIXa-D85N, for which, in data set [2], the “% of WT (kcat/KM)” value is on record as 153%, the kcat/KM was found to be 7e+07 M⁻¹ s⁻¹ and the kcat/KM (M^-1s^-1) turned out to be 7.3e+07 M⁻¹ s⁻¹. In addition, in data set [3], the kcat is 4.1 s⁻¹. In data set [5], the K0.5-mut/K0.5-wt was found to be 1.1.
With FIXa S53A, in data set [1], the K0.5 was found to be 27 nM and the K0.5-mut/K0.5-wt was found to be 1.4.
In data set [1], FIXa D104N/K106S/Y155F yielded a K0.5 of 6 nM and a K0.5-mut/K0.5-wt of 0.3.
Turning to “FIXa K5A (K[5]A by chymotrypsin numbering)”, the kcat in data set [4] amounted to 3.1 s⁻¹.
In data set [1], FIXa D64A registered a K0.5 of 16 nM and a K0.5-mut/K0.5-wt of 0.8.
In data set [1], FIXa D85N showed a K0.5 of 17 nM and a K0.5-mut/K0.5-wt of 0.9.
Take FIXa-K106N/V108S: in data set [2], the “% of WT (kcat/KM)” value stood at 60% and the kcat/KM (M^-1s^-1) was found to be 2.8e+07 M⁻¹ s⁻¹. The kcat in data set [3] turned out to be 2.5 s⁻¹. The K0.5-mut/K0.5-wt in data set [5] was determined as 1.6.
Turning to FIXa-A103N/N105S, the K0.5-mut/K0.5-wt in data set [5] was found to be 1.1.
For the substance FIXa-K5A, the kcat in data set [3] came to 3.5 s⁻¹.
In data set [1], FIXa S61A displayed a K0.5 of 19 nM and a K0.5-mut/K0.5-wt of 1.
In data set [1], FIXa N167D had a K0.5 of 12 nM.
With “FIXa D64N (D[64]N by chymotrypsin numbering)”, the kcat in data set [4] worked out at 1.2 s⁻¹.
Regarding “BeneFIX Coagulation Factor IX (Recombinant), activated (FIXa)”, in data set [5], the K0.5-mut/K0.5-wt was 0.9.
Consider FIXa D104N/K106S, for which, in data set [1], the K0.5 is 20 nM and the K0.5-mut/K0.5-wt amounted to 1.
In data set [1], FIXa K5A yielded a K0.5 of 22 nM and a K0.5-mut/K0.5-wt of 1.2. The KM in data set [2] was 65.4 nM.
Regarding FIXa-D104N/K106S/Y155F, in data set [2], the “% of WT (kcat/KM)” value is on record as 78% and the kcat/KM (M^-1s^-1) came out at 3.6e+07 M⁻¹ s⁻¹. Besides, in data set [3], the kcat is 2.9 s⁻¹.
In turn, FIXa Y155F returned a K0.5 in data set [1] of 13 nM.
For “FIXa D104N/K106S/Y155F (D[104]N/K[106]S/Y[155]F by chymotrypsin numbering)”, the kcat in data set [4] amounted to 2.9 s⁻¹.
In data set [1], FIXa A103N/N105S/Y155F returned a K0.5 of 11 nM and a K0.5-mut/K0.5-wt of 0.6.
For “FIXa A103N/N105S/Y155F (A[103]N/N[105]S/Y[155]F by chymotrypsin numbering)”, in data set [4], the kcat amounted to 3.2 s⁻¹.
Same read-out and setting: the result for “FIXa D85N (D[85]N by chymotrypsin numbering)” reads 4.2 s⁻¹.
On to “FIXa S53A (S[53]A by chymotrypsin numbering)”, for which the kcat in data set [4] stood at 3.7 s⁻¹.
Substance FIXa Y155H came in with a K0.5 in data set [1] of 25 nM.
On to FIXa-D64N, for which, in data set [2], the kcat/KM (M^-1s^-1) was found to be 1e+07 M⁻¹ s⁻¹. For the same substance, the kcat in data set [3] was found to be 1.2 s⁻¹.
For FIXa N167Q, in data set [1], the K0.5 was 12 nM.
In data set [1], FIXa T169A returned a K0.5 of 17 nM.

These data come from patent US20210230570.
